# Measured values: patent publication US20060257938A1, “Method of screening for drugs that block ligand binding to a lipid binding protein” (priority 2005, published 2006)
# Changes are numbered by the printed parent chain. In names and notes the source's numbering stands. Several values for one entry are separate records, joined by “and”; a condition that tells them apart may be missing. Equal values may be shown once.
# B1: L2P2E11: FABP probe, substitutions M18I G31F vs SEQ ID NO: 2 (protein, listed as Rattus norvegicus)
# chain: AFDGTWKVDRNENYEKFIEKMGINVVKRKLFAHDNLKLTITQEGNKFTVKESSNFRNIDVVFELGVDFAYSLADGTELTGTWTMEGNKLVGKFKRVDNGKELIAVREISGNELIQTYTYEGVEAKRIFKKE
# modifications: PEPTIDE (1)...(131) wild-type rat intestinal fatty acid binding protein
# B2: L2P22G6: FABP probe, substitutions M18I G31Y A73G vs SEQ ID NO: 2 (protein, listed as Rattus norvegicus)
# chain: B1 chain with F31Y, A73G
# modifications: PEPTIDE (1)...(131) wild-type rat intestinal fatty acid binding protein
# B3: L2P11B4: FABP probe, substitutions M18V G31A A73W vs SEQ ID NO: 2 (protein, listed as Rattus norvegicus)
# chain: B1 chain with I18V, F31A, A73W
# modifications: PEPTIDE (1)...(131) wild-type rat intestinal fatty acid binding protein
# B4: L2P17H10: FABP probe, substitutions M18G G31F A73L vs SEQ ID NO: 2 (protein, listed as Rattus norvegicus)
# chain: B1 chain with I18G, A73L
# modifications: PEPTIDE (1)...(131) wild-type rat intestinal fatty acid binding protein
# B5: L2P12C5: FABP probe, substitutions M18I G31I F55M A73I vs SEQ ID NO: 2 (protein, listed as Rattus norvegicus)
# chain: B1 chain with F31I, F55M, A73I
# modifications: PEPTIDE (1)...(131) wild-type rat intestinal fatty acid binding protein
# B6: L2P8A6: FABP probe, substitutions M18I G31V F55V A73V vs SEQ ID NO: 2 (protein, listed as Rattus norvegicus)
# chain: B1 chain with F31V, F55V, A73V
# modifications: PEPTIDE (1)...(131) wild-type rat intestinal fatty acid binding protein
# B7: 72F (protein, listed as Rattus norvegicus)
# chain: B1 chain with I18M, F31G, L72F
# modifications: PEPTIDE (1)...(131) wild-type rat intestinal fatty acid binding protein
# B8: 119M, 72A (protein, listed as Rattus norvegicus)
# chain: B1 chain with I18M, F31G, L72A, Y119M
# modifications: PEPTIDE (1)...(131) wild-type rat intestinal fatty acid binding protein
# B9: L2P22 B1: FABP probe, mutations 18Y 31V 55V 72A vs SEQ ID NO: 2 (protein, listed as Rattus norvegicus)
# chain: B1 chain with I18Y, F31V, F55V, L72A
# modifications: PEPTIDE (1)...(131) wild-type rat intestinal fatty acid binding protein
# B10: L1P5 H9: FABP probe, mutations 14M 72I 117W vs SEQ ID NO: 2 (protein, listed as Rattus norvegicus)
# chain: B1 chain with Y14M, I18M, F31G, L72I, Y117W
# modifications: PEPTIDE (1)...(131) wild-type rat intestinal fatty acid binding protein
# B11: L1P1 B4: FABP probe, mutations 14I 72W 117W vs SEQ ID NO: 2 (protein, listed as Rattus norvegicus)
# chain: B1 chain with Y14I, I18M, F31G, L72W, Y117W
# modifications: PEPTIDE (1)...(131) wild-type rat intestinal fatty acid binding protein
# B12: L1P14 D6: FABP probe, mutations 14M 72V 117W vs SEQ ID NO: 2 (protein, listed as Rattus norvegicus)
# chain: B1 chain with Y14M, I18M, F31G, L72V, Y117W
# modifications: PEPTIDE (1)...(131) wild-type rat intestinal fatty acid binding protein
# B13: L1P12 E8: FABP probe, mutations 14L 38A 72G 117F 114E vs SEQ ID NO: 2 (protein, listed as Rattus norvegicus)
# chain: B1 chain with Y14L, I18M, F31G, L38A, L72G, I114E, Y117F
# modifications: PEPTIDE (1)...(131) wild-type rat intestinal fatty acid binding protein
# B14: L5P16 H4: FABP probe, mutations 126K 73F 72A vs SEQ ID NO: 2 (protein, listed as Rattus norvegicus)
# chain: B1 chain with I18M, F31G, L72A, A73F, R126K
# modifications: PEPTIDE (1)...(131) wild-type rat intestinal fatty acid binding protein
# B15: L1P1 C12: FABP probe, mutations 38I 72W 117W vs SEQ ID NO: 2 (protein, listed as Rattus norvegicus)
# chain: B1 chain with I18M, F31G, L38I, L72W, Y117W
# modifications: PEPTIDE (1)...(131) wild-type rat intestinal fatty acid binding protein
# Assay: Probe fluorescence ratio response to palmitoleic acid relative to ADIFAB2
# Type: binding
# Conditions: Table 5
# Outline: (§1)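 Each fatty acid's response was expressed relative to ADIFAB2, the rI-FABP-L72A probe, as ΔR/ΔRreference. ΔR is the change in the background-corrected two-wavelength intensity ratio R=Fλ1/Fλ2 from its analyte-free baseline R0. Emission was read near about 420-480 nm for unbound and about 495-580 nm for FFA-bound probe.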
row,Molecule,ΔR/DRAΔ2 POA
1,B1,2.6
2,B2,2.6
3,B3,3.1
4,B4,1.2
5,B5,1.9
6,B6,1.3

# Assay: Probe fluorescence ratio response to linolenic acid relative to ADIFAB2
# Type: binding
# Conditions: Table 5
# Outline: as §1
row,Molecule,ΔR/DRAΔ2 LNA
1,B1,2.8
2,B2,2.7
3,B3,2.8
4,B4,1.2
5,B5,1.7
6,B6,1.2

# Same assay, conditions: response relative to ADIFAB2
row,Molecule,DR/DR LNA
1,B7,0.59 and 0.592
2,B8,2.280

# Assay: Probe fluorescence ratio response to stearic acid relative to ADIFAB2
# Type: binding
# Conditions: Table 5
# Outline: as §1
row,Molecule,ΔR/DRAΔ2 SA
1,B1,0.8
2,B2,0.9
3,B3,0.7
4,B4,1.7
5,B5,0.4
6,B6,0.2

# Assay: Probe fluorescence intensity change with UCB:BSA
# Type: binding
# Conditions: 1:1 UCB:BSA, 440 nm
row,Molecule,ΔI/Io 1:1 UCB:BSA 440 nm
1,B9,−0.70
2,B10,−0.58
3,B11,−0.66
4,B12,−0.69
5,B13,−0.79
6,B14,−0.69
7,B15,−0.92

# Same assay, conditions: 1:1 UCB:BSA, 500 nm
row,Molecule,ΔI/Io 1:1 UCB:BSA 500 nm
1,B9,−0.68
2,B10,−0.63
3,B11,−0.64
4,B12,−0.64
5,B13,−0.70
6,B14,−0.64
7,B15,−0.86

# Same assay, conditions: 1:2 UCB:BSA, 440 nm
row,Molecule,ΔI/Io 1:2 UCB:BSA 440 nm
1,B9,−0.36
2,B10,−0.34
3,B11,−0.36
4,B12,−0.37
5,B13,−0.45
6,B14,−0.37
7,B15,−0.86

# Same assay, conditions: 1:2 UCB:BSA, 500 nm
row,Molecule,ΔI/Io 1:2 UCB:BSA 500 nm
1,B9,−0.35
2,B10,−0.34
3,B11,−0.35
4,B12,−0.33
5,B13,−0.39
6,B14,−0.31
7,B15,−0.79

# Assay: Probe fluorescence ratio response to palmitic acid relative to ADIFAB2
# Type: binding
# Conditions: Table 5
# Outline: as §1
row,Molecule,ΔR/DRAΔ2 PA
1,B1,2.0
2,B2,1.9
3,B3,2.2
4,B4,1.0
5,B5,1.5
6,B6,1.0

# Same assay, conditions: response relative to ADIFAB2
row,Molecule,DR/DR PA
1,B7,0.46 and 0.456
2,B8,0.722

# Assay: Probe fluorescence ratio response to linoleic acid relative to ADIFAB2
# Type: binding
# Conditions: Table 5
# Outline: as §1
row,Molecule,ΔR/DRAΔ2 LA
1,B1,2.5
2,B2,2.6
3,B3,2.6
4,B4,1.5
5,B5,1.5
6,B6,0.8

# Same assay, conditions: response relative to ADIFAB2
row,Molecule,DR/DR LA
1,B7,0.61 and 0.612
2,B8,1.184

# Assay: Probe fluorescence ratio response to arachidonic acid relative to ADIFAB2
# Type: binding
# Conditions: Arachidonic acid; response relative to ADIFAB2
# Outline: as §1
row,Molecule,DR/DR AA
1,B7,0.40

# Same assay, conditions: Table 5; Arachidonic acid
row,Molecule,ΔR/DRAΔ2 AA
1,B1,1.9
2,B2,1.8
3,B3,1.8
4,B4,1.8
5,B5,1.3
6,B6,0.6

# Same assay, conditions: arachidonic acid; response relative to ADIFAB2
row,Molecule,DR/DR AA
1,B7,0.401
2,B8,1.087

# Assay: Probe fluorescence ratio response to oleic acid relative to ADIFAB2
# Type: binding
# Conditions: Table 5
# Outline: as §1
row,Molecule,ΔR/DRAΔ2 OA
1,B1,1.6
2,B2,1.6
3,B3,1.9
4,B4,1.4
5,B5,0.8
6,B6,0.4

# Same assay, conditions: response relative to ADIFAB2
row,Molecule,DR/DR OA
1,B7,0.57 and 0.571
2,B8,1.191

# Assay: Response profile of probe to fatty acids (Table 2)
# Type: binding
# Conditions: not given
row,Molecule,response profile
1,B7,AA lowest
2,B8,Favors LNA
